Test results: patent US20020155577A1 (AVENTIS PHARMA S A, published 2002)

Biological target: T1, PAP1 (Parkin Associated Protein 1) fragment encoded by the insert of library plasmid pGAD-Ly111b, fused to … (human, UniProt Q4VX76 267-610)
T1 construct: Prey of the yeast two-hybrid test; It is a partial PAP1 clone from a human peripheral lymphocyte cDNA library; Any linker between GAL4 and the insert is not described; also called fragment of PAP1; plasmid isolated during the screening of the two-hybrid library
T1 sequence: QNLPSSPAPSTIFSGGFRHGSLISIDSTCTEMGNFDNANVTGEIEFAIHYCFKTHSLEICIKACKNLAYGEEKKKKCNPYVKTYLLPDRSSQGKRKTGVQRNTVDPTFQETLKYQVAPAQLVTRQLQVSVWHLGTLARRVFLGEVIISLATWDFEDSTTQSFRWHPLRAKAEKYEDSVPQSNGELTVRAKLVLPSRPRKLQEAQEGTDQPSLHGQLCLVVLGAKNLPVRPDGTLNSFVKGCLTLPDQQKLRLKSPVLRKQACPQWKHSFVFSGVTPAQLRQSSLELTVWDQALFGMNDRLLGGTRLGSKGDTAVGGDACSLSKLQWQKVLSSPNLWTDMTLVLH
Assay: yeast two-hybrid in strain L40, beta-Gal activity assay
Procedure: A sheet of nitrocellulose is preplaced on the Petri dish containing the yeast clones, which are separated from each other. This sheet is then immersed in liquid nitrogen for 30 seconds, in order to rupture the yeasts and thus to release the β-galactosidase activity. After thawing, the sheet of nitrocellulose is placed, colonies facing upwards, in another Petri dish containing a Whatman paper which has been presoaked in 1.5 ml of PBS solution (60 mM Na₂HPO₄, 40 mM NaH₂PO₄, 10 mM KCl, 1 mM MgSO₄, pH 7) containing 15 μl of X-Gal (5-bromo-4-chloro-3-indoyl-β-D-galactoside) at 40 mg/ml of N,N-dimethylformamide. The dish is then placed in an incubator at 37° C. The assay is termed positive when the colonies on the membrane turn blue after 12 hours.
To determine the specificity of interaction between the fragment corresponding to the PAP1 protein and the central region of parkin, a two-hybrid test for specific interaction with other nonrelevant proteins was carried out. To carry out this test, we transformed strain L40 with the control plasmids plex9-cAPP or pLex9-HaRasVal12, in place of the plasmid pLex9-parkin (135-290), which respectively encode the cytoplasmic domain of the APP or the HaRasVal12 protein, which are fused to the LexA DNA binding domain, and with the plasmid isolated during the screening of the two-hybrid library. […]

binding result: binds
B1: central region of parkin (amino acids 135-290) fused to the LexA bacterial repressor, from vector pLex9-parkin (135-290) (other)
chain: GSPAGRSIYNSFYVYCKGPCQRVQPGKLRVQCSTCRQATLTLTQGPSCWDDVLIPNRMSGECQSPHCPGTSAEFFFKCGAHPTSDKETSVALHLIATNSRNITCITCTDVRSPVLVFQCNSRHVICLDCFHLYCVTRLNDRQFVHDPQLGYSLPCV
notes: also called central portion of parkin; not shown: LexA bacterial repressor as encoded by vector pLex9 (pBTM116)
